From patent US20140087995A1 (published 2014) come the findings set out here.

Numbered stars: 1 amine (or outer) side, 2 acyl side, 3 side chain; on linkers, the order of the positions; unused ones are H or OH. Bridge positions count the residues as written; N and C are the ends. Side chains are listed from the residue outwards. Ends that are not written are not given here. * marks the point of attachment. C20 diacid = O=C(O)CCCCCCCCCCCCCCCCCCC(=O)*; γGlu = O=C(O)[C@H](CCC(=O)[*:2])N[*:1]; AEEA = NCCOCCOCC(=O)O

T1: human calcitonin receptor (human, UniProt P30988 25-474)
T1 sequence (looked up): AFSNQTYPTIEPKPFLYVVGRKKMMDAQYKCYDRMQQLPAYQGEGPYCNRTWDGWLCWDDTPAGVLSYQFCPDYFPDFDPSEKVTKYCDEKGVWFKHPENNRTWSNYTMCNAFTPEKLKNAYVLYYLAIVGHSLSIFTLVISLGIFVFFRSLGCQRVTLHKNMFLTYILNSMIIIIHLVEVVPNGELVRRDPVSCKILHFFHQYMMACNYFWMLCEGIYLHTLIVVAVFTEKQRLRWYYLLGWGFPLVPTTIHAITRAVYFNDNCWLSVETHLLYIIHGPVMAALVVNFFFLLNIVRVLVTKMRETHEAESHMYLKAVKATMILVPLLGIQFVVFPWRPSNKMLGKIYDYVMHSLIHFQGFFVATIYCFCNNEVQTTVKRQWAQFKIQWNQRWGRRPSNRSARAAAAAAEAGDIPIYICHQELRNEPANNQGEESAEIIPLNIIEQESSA

B1: N^ε1-[2-[2-[2-(19-carboxynonadecanoylamino)ethoxy]ethoxy]acetyl]-[His14,Arg17,Pro21,Pro27]-h-amylin (peptide)
peptide: K([AEEA-C20 diacid])CNTATCATQRLAHFLRHSSPNFGAIPSSTNVGSNTY-NH2
modifications: disulfide 2-7; N-terminus assumed
SMILES: CC[C@H](C)[C@H](NC(=O)[C@H](C)NC(=O)CNC(=O)[C@H](Cc1ccccc1)NC(=O)[C@H](CC(N)=O)NC(=O)[C@@H]1CCCN1C(=O)[C@H](CO)NC(=O)[C@H](CO)NC(=O)[C@H](Cc1c[nH]cn1)NC(=O)[C@H](CCCNC(=N)N)NC(=O)[C@H](CC(C)C)NC(=O)[C@H](Cc1ccccc1)NC(=O)[C@H](Cc1c[nH]cn1)NC(=O)[C@H](C)NC(=O)[C@H](CC(C)C)NC(=O)[C@H](CCCNC(=N)N)NC(=O)[C@H](CCC(N)=O)NC(=O)[C@@H](NC(=O)[C@H](C)NC(=O)[C@@H]1CSSC[C@H](NC(=O)[C@@H](N)CCCCNC(=O)COCCOCCNC(=O)CCCCCCCCCCCCCCCCCCC(=O)O)C(=O)N[C@@H](CC(N)=O)C(=O)N[C@@H]([C@@H](C)O)C(=O)N[C@@H](C)C(=O)N[C@@H]([C@@H](C)O)C(=O)N1)[C@@H](C)O)C(=O)N1CCC[C@H]1C(=O)N[C@@H](CO)C(=O)N[C@@H](CO)C(=O)N[C@H](C(=O)N[C@@H](CC(N)=O)C(=O)N[C@H](C(=O)NCC(=O)N[C@@H](CO)C(=O)N[C@@H](CC(N)=O)C(=O)N[C@H](C(=O)N[C@@H](Cc1ccc(O)cc1)C(N)=O)[C@@H](C)O)C(C)C)[C@@H](C)O
notes: also called compound 90
B2: N{-1}-[(4S)-4-carboxy-4-(19-carboxynonadecanoylamino)butanoyl]-Gly[Arg1,His14,Arg17,Pro21,Pro27]-h-amylin (peptide)
peptide: {C20 diacid-γGlu}-GRCNTATCATQRLAHFLRHSSPNFGAIPSSTNVGSNTY-NH2
modifications: disulfide 3-8
SMILES: CC[C@H](C)[C@H](NC(=O)[C@H](C)NC(=O)CNC(=O)[C@H](Cc1ccccc1)NC(=O)[C@H](CC(N)=O)NC(=O)[C@@H]1CCCN1C(=O)[C@H](CO)NC(=O)[C@H](CO)NC(=O)[C@H](Cc1c[nH]cn1)NC(=O)[C@H](CCCNC(=N)N)NC(=O)[C@H](CC(C)C)NC(=O)[C@H](Cc1ccccc1)NC(=O)[C@H](Cc1c[nH]cn1)NC(=O)[C@H](C)NC(=O)[C@H](CC(C)C)NC(=O)[C@H](CCCNC(=N)N)NC(=O)[C@H](CCC(N)=O)NC(=O)[C@@H](NC(=O)[C@H](C)NC(=O)[C@@H]1CSSC[C@H](NC(=O)[C@H](CCCNC(=N)N)NC(=O)CNC(=O)CC[C@H](NC(=O)CCCCCCCCCCCCCCCCCCC(=O)O)C(=O)O)C(=O)N[C@@H](CC(N)=O)C(=O)N[C@@H]([C@@H](C)O)C(=O)N[C@@H](C)C(=O)N[C@@H]([C@@H](C)O)C(=O)N1)[C@@H](C)O)C(=O)N1CCC[C@H]1C(=O)N[C@@H](CO)C(=O)N[C@@H](CO)C(=O)N[C@H](C(=O)N[C@@H](CC(N)=O)C(=O)N[C@H](C(=O)NCC(=O)N[C@@H](CO)C(=O)N[C@@H](CC(N)=O)C(=O)N[C@H](C(=O)N[C@@H](Cc1ccc(O)cc1)C(N)=O)[C@@H](C)O)C(C)C)[C@@H](C)O
notes: also called compound 99
B3: N^-1-[(4S)-4-carboxy-4-(19-carboxynonadecanoylamino)butanoyl]-Gly[Arg1,His14,Arg17,Pro21,Pro27,His34]-h-amylin (peptide)
peptide: {C20 diacid-γGlu}-GRCNTATCATQRLAHFLRHSSPNFGAIPSSTNVGHNTY-NH2
modifications: disulfide 3-8
SMILES: CC[C@H](C)[C@H](NC(=O)[C@H](C)NC(=O)CNC(=O)[C@H](Cc1ccccc1)NC(=O)[C@H](CC(N)=O)NC(=O)[C@@H]1CCCN1C(=O)[C@H](CO)NC(=O)[C@H](CO)NC(=O)[C@H](Cc1c[nH]cn1)NC(=O)[C@H](CCCNC(=N)N)NC(=O)[C@H](CC(C)C)NC(=O)[C@H](Cc1ccccc1)NC(=O)[C@H](Cc1c[nH]cn1)NC(=O)[C@H](C)NC(=O)[C@H](CC(C)C)NC(=O)[C@H](CCCNC(=N)N)NC(=O)[C@H](CCC(N)=O)NC(=O)[C@@H](NC(=O)[C@H](C)NC(=O)[C@@H]1CSSC[C@H](NC(=O)[C@H](CCCNC(=N)N)NC(=O)CNC(=O)CC[C@H](NC(=O)CCCCCCCCCCCCCCCCCCC(=O)O)C(=O)O)C(=O)N[C@@H](CC(N)=O)C(=O)N[C@@H]([C@@H](C)O)C(=O)N[C@@H](C)C(=O)N[C@@H]([C@@H](C)O)C(=O)N1)[C@@H](C)O)C(=O)N1CCC[C@H]1C(=O)N[C@@H](CO)C(=O)N[C@@H](CO)C(=O)N[C@H](C(=O)N[C@@H](CC(N)=O)C(=O)N[C@H](C(=O)NCC(=O)N[C@@H](Cc1c[nH]cn1)C(=O)N[C@@H](CC(N)=O)C(=O)N[C@H](C(=O)N[C@@H](Cc1ccc(O)cc1)C(N)=O)[C@@H](C)O)C(C)C)[C@@H](C)O
notes: also called compound 100
B4: N^ε1-[(4S)-4-carboxy-4-(19-carboxynonadecanoylamino)butanoyl]-[His14,Arg17,Pro21,Pro27]-h-amylin (peptide)
peptide: K([γGlu-C20 diacid])CNTATCATQRLAHFLRHSSPNFGAIPSSTNVGSNTY-NH2
modifications: disulfide 2-7; N-terminus assumed
SMILES: CC[C@H](C)[C@H](NC(=O)[C@H](C)NC(=O)CNC(=O)[C@H](Cc1ccccc1)NC(=O)[C@H](CC(N)=O)NC(=O)[C@@H]1CCCN1C(=O)[C@H](CO)NC(=O)[C@H](CO)NC(=O)[C@H](Cc1c[nH]cn1)NC(=O)[C@H](CCCNC(=N)N)NC(=O)[C@H](CC(C)C)NC(=O)[C@H](Cc1ccccc1)NC(=O)[C@H](Cc1c[nH]cn1)NC(=O)[C@H](C)NC(=O)[C@H](CC(C)C)NC(=O)[C@H](CCCNC(=N)N)NC(=O)[C@H](CCC(N)=O)NC(=O)[C@@H](NC(=O)[C@H](C)NC(=O)[C@@H]1CSSC[C@H](NC(=O)[C@@H](N)CCCCNC(=O)CC[C@H](NC(=O)CCCCCCCCCCCCCCCCCCC(=O)O)C(=O)O)C(=O)N[C@@H](CC(N)=O)C(=O)N[C@@H]([C@@H](C)O)C(=O)N[C@@H](C)C(=O)N[C@@H]([C@@H](C)O)C(=O)N1)[C@@H](C)O)C(=O)N1CCC[C@H]1C(=O)N[C@@H](CO)C(=O)N[C@@H](CO)C(=O)N[C@H](C(=O)N[C@@H](CC(N)=O)C(=O)N[C@H](C(=O)NCC(=O)N[C@@H](CO)C(=O)N[C@@H](CC(N)=O)C(=O)N[C@H](C(=O)N[C@@H](Cc1ccc(O)cc1)C(N)=O)[C@@H](C)O)C(C)C)[C@@H](C)O
notes: also called compound 70
B5: N^ε1N^ε1-[(4S)-4-carboxy-4-(19-carboxynonadecanoylamino)butanoyl]-[His14,Arg17,Pro21,Pro27,Pro34]-h-amylin (peptide)
peptide: K([γGlu-C20 diacid])CNTATCATQRLAHFLRHSSPNFGAIPSSTNVGPNTY-NH2
modifications: disulfide 2-7; N-terminus assumed
SMILES: CC[C@H](C)[C@H](NC(=O)[C@H](C)NC(=O)CNC(=O)[C@H](Cc1ccccc1)NC(=O)[C@H](CC(N)=O)NC(=O)[C@@H]1CCCN1C(=O)[C@H](CO)NC(=O)[C@H](CO)NC(=O)[C@H](Cc1c[nH]cn1)NC(=O)[C@H](CCCNC(=N)N)NC(=O)[C@H](CC(C)C)NC(=O)[C@H](Cc1ccccc1)NC(=O)[C@H](Cc1c[nH]cn1)NC(=O)[C@H](C)NC(=O)[C@H](CC(C)C)NC(=O)[C@H](CCCNC(=N)N)NC(=O)[C@H](CCC(N)=O)NC(=O)[C@@H](NC(=O)[C@H](C)NC(=O)[C@@H]1CSSC[C@H](NC(=O)[C@@H](N)CCCCNC(=O)CC[C@H](NC(=O)CCCCCCCCCCCCCCCCCCC(=O)O)C(=O)O)C(=O)N[C@@H](CC(N)=O)C(=O)N[C@@H]([C@@H](C)O)C(=O)N[C@@H](C)C(=O)N[C@@H]([C@@H](C)O)C(=O)N1)[C@@H](C)O)C(=O)N1CCC[C@H]1C(=O)N[C@@H](CO)C(=O)N[C@@H](CO)C(=O)N[C@H](C(=O)N[C@@H](CC(N)=O)C(=O)N[C@H](C(=O)NCC(=O)N1CCC[C@H]1C(=O)N[C@@H](CC(N)=O)C(=O)N[C@H](C(=O)N[C@@H](Cc1ccc(O)cc1)C(N)=O)[C@@H](C)O)C(C)C)[C@@H](C)O
notes: also called compound 67
B6: N^ε1-[(4S)-4-carboxy-4-[[(4S)-4-carboxy-4-(19-carboxynonadecanoylamino)butanoyl]amino]butanoyl]-[His14,Arg17,Pro21,Pro27]-h-amylin (peptide)
peptide: K([γGlu-γGlu-C20 diacid])CNTATCATQRLAHFLRHSSPNFGAIPSSTNVGSNTY-NH2
modifications: disulfide 2-7; N-terminus assumed
SMILES: CC[C@H](C)[C@H](NC(=O)[C@H](C)NC(=O)CNC(=O)[C@H](Cc1ccccc1)NC(=O)[C@H](CC(N)=O)NC(=O)[C@@H]1CCCN1C(=O)[C@H](CO)NC(=O)[C@H](CO)NC(=O)[C@H](Cc1c[nH]cn1)NC(=O)[C@H](CCCNC(=N)N)NC(=O)[C@H](CC(C)C)NC(=O)[C@H](Cc1ccccc1)NC(=O)[C@H](Cc1c[nH]cn1)NC(=O)[C@H](C)NC(=O)[C@H](CC(C)C)NC(=O)[C@H](CCCNC(=N)N)NC(=O)[C@H](CCC(N)=O)NC(=O)[C@@H](NC(=O)[C@H](C)NC(=O)[C@@H]1CSSC[C@H](NC(=O)[C@@H](N)CCCCNC(=O)CC[C@H](NC(=O)CC[C@H](NC(=O)CCCCCCCCCCCCCCCCCCC(=O)O)C(=O)O)C(=O)O)C(=O)N[C@@H](CC(N)=O)C(=O)N[C@@H]([C@@H](C)O)C(=O)N[C@@H](C)C(=O)N[C@@H]([C@@H](C)O)C(=O)N1)[C@@H](C)O)C(=O)N1CCC[C@H]1C(=O)N[C@@H](CO)C(=O)N[C@@H](CO)C(=O)N[C@H](C(=O)N[C@@H](CC(N)=O)C(=O)N[C@H](C(=O)NCC(=O)N[C@@H](CO)C(=O)N[C@@H](CC(N)=O)C(=O)N[C@H](C(=O)N[C@@H](Cc1ccc(O)cc1)C(N)=O)[C@@H](C)O)C(C)C)[C@@H](C)O
notes: also called compound 92

In the experiment the target is T1, human calcitonin receptor. As to the kind of experiment: cell-based or functional assay.
Consider B1, for which the “hCTR funct. EC50” value was 0.236 nM.
Then B2, with 0.818 nM.
Then B3, with 1.73 nM; and B4, with 0.715 nM; and B5, with 0.354 nM.
Next, B6: 2.38 nM.
